In paper PMC4245986 (Biochemistry, 2014):
Read-outs that look alike come from different tables or passages of the source. Ends that are not written are not given here. rhodamine = not defined here

T1: GST-SH3 domain (derived from BIN1) (human)
T1 sequence (O00499 whole entry, looked up): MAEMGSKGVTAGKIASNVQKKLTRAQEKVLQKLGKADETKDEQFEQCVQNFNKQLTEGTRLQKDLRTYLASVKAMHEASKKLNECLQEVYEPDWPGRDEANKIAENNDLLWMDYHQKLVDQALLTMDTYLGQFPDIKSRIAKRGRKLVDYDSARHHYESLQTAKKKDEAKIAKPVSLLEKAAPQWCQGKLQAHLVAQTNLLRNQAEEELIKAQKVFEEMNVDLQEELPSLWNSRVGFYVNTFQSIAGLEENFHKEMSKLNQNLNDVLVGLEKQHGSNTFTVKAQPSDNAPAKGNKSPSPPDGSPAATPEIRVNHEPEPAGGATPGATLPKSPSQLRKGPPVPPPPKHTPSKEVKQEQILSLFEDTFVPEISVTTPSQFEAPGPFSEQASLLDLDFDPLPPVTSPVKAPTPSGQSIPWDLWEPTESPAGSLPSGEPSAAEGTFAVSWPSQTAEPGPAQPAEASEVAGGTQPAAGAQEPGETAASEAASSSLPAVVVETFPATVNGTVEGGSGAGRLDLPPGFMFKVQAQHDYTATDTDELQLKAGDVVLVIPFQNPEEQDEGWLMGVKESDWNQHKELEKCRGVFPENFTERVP

T2: Alexa488 labeled BIN1-FL (human, UniProt O00499-8 1-454, Alexa 488 C5-maleimide on endogenous cysteine residues)
T2 sequence (looked up): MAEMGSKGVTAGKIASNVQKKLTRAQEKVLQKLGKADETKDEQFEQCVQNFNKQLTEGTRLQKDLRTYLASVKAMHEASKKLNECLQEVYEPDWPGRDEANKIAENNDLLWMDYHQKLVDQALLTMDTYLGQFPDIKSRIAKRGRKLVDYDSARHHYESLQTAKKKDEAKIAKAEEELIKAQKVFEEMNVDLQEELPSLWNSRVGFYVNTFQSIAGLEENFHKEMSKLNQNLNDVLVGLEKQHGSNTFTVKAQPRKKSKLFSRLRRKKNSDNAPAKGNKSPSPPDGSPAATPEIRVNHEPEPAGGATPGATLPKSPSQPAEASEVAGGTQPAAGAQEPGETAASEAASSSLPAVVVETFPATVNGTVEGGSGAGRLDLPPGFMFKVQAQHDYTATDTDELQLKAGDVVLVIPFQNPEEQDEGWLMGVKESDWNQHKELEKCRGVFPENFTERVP


Assays:
[1] = target: T1, GST-SH3 domain (derived from BIN1) (human); assay: ITC
[2] = target: T1, GST-SH3 domain (derived from BIN1) (human); assay: ITC; remark: listed apart in the source
[3] = target: T1, GST-SH3 domain (derived from BIN1) (human); assay: ITC; remark: listed apart in the source
[4] = target: T1, GST-SH3 domain (derived from BIN1) (human); assay: ITC; remark: listed apart in the source
Alexa488 labeled BIN1-FL = target: T2, Alexa488 labeled BIN1-FL; assay: recruitment of fluorescent peptide to protein-coated giant vesicles

| Binder | Kd [1] [µM] | stoichiometry N [1] | stoichiometry N [2] | Kd [3] [µM] | Kd [4] [µM] | binding result (Alexa488 labeled BIN1-FL) |
| --- | --- | --- | --- | --- | --- | --- |
| RKKSKLFSRLRRKKN [exon10 peptide] | 3.9 | 1 | 1 | 11.3 | – | – |
| PPQIPSRPVRIPPGI [dynamin 2-derived proline-rich domain peptide] | 13.7 | – | – | – | 68.3 | – |
| rhodamine-PPQIPSRPVRIPPGI (reading uncertain) [rhodamine-labeled PRD peptide] | – | – | – | – | – | binds |
